Measured values taken from article PMC11524007.

Tests used:
[1] = target: HIF1β (human (endogenous in LS174T and in patient renal tissue)) (UniProt P27540); assay: FRET or BRET; two-site amplified FRET (aFRET) read by frequency-domain FLIM on PFA-fixed, permeabilised LS174T cells under hypoxia (1% O2, 48 h); donor ATTO488 on anti-HIF-1β, acceptor Alexa594 (TSA) on anti-HIF-2α; Ef below 4% regarded as non-interactive
[2] = target: HIF1β (human (endogenous in LS174T and in patient renal tissue)) (UniProt P27540); assay: FRET or BRET; FuncOmap: Ef computed for each coincidence region of the two-site aiFRET/FLIM images of tissue microarray cores (HIF1β/HIF2α: B7, A5; PD-1/PD-L1: B7, B5, A5); Otsu thresholding; Ef below 4% regarded as non-interactive
[3] = target: HIF1β (human (endogenous in LS174T and in patient renal tissue)) (UniProt P27540); assay: FRET or BRET; FuncOmap: Ef computed for each coincidence region of the two-site aFRET/FLIM images, HIF1β/HIF2α in ccRCC core B5; Otsu thresholding; Ef below 4% regarded as non-interactive
[4] = target: HIF1β (human (endogenous in LS174T and in patient renal tissue)) (UniProt P27540); assay: FRET or BRET; two-site aiFRET read by frequency-domain FLIM on tissue microarray cores (normal renal tissue B7, ccRCC cores A1 and A2); median Ef over 10-20 hand-picked regions of interest; donor ATTO488 on HIF1β or PD-1, acceptor Alexa594 (TSA) on HIF2α or PD-L1; Ef below 4% regarded as non-interactive

HIF1β (human (endogenous in LS174T and in patient renal tissue)), sequence (P27540 whole entry): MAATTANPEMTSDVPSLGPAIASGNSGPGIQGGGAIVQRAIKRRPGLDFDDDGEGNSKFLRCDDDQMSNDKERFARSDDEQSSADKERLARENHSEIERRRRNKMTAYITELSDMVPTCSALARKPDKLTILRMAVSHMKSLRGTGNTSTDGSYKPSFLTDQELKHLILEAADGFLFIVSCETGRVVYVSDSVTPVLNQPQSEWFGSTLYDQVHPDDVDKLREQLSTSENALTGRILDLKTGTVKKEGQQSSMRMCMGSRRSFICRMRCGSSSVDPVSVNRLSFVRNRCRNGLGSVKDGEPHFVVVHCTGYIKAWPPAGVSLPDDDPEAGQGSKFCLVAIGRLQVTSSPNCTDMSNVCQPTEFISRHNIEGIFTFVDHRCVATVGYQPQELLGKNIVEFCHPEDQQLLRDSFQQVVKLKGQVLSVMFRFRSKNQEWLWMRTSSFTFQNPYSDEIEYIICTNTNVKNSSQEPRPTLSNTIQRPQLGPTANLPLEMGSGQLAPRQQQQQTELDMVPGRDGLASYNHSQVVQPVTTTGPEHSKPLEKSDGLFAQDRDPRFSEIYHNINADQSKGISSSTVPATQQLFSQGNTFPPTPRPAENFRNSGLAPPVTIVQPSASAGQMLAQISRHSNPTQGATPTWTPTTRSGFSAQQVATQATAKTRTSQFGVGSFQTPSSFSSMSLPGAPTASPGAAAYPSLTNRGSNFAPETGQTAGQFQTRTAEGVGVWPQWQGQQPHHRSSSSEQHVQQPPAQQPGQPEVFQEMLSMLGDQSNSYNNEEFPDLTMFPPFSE

median FRET efficiency (hypoxia) [1]: 7.75%
median Ef, ccRCC core A1 [4]: 13.6%
median Ef, ccRCC core A2 [4]: 9.3%
median Ef, normal tissue [4]: 6.7%
Substance: HIF2α (from UniProt Q99814 1-870) (natural protein)
Ef, core A5, region 12 [2]: 12.2%
Ef, core A5, region 78 [2]: 13.5%
Ef, core A5, region 83 [2]: 12.7%
Ef, core A5, region 131 [2]: 13.5%
Ef, core A5, region 168 [2]: 12.2%
Ef, core A5, region 187 [2]: 12.2%
Ef, core A5, region 189 [2]: 16%
Ef, core A5, region 235 [2]: 15.4%
Ef, core A5, region 276 [2]: 12.2%
Ef, core A5, region 294 [2]: 13.5%
Ef, core A5, region 383 [2]: 16%
Ef, core A5, region 400 [2]: 12.2%
Ef, core A5, region 531 [2]: 13.5%
Ef, core A5, region 619 [2]: 13.5%
Ef, core A5, region 679 [2]: 12.2%
Ef, core A5, region 733 [2]: 11.4%
Ef, core A5, region 817 [2]: 13.5%
Ef, core A5, region 822 [2]: 12.2%
Ef, core A5, region 826 [2]: 12.2%
Ef, core A5, region 829 [2]: 16%
Ef, core A5, region 1273 [2]: 12.2%
Ef, core A5, region 1299 [2]: 16%
Ef, core A5, region 1302 [2]: 19.8%
Ef, core A5, region 1307 [2]: 21.1%
Ef, core A5, region 1308 [2]: 14.8%
Ef, core B7, region 64 [2]: 0%
Ef, core B7, region 231 [2]: 0%
Ef, core B7, region 402 [2]: 0%
Ef, core B7, region 632 [2]: 0%
Ef, core B7, region 633 [2]: 0%
Ef, core B7, region 634 [2]: 0%
Ef, core B7, region 635 [2]: 0%
Ef, core B7, region 636 [2]: 0%
Ef, core B7, region 637 [2]: 0%
Ef, core B7, region 638 [2]: 0%
Ef, core B7, region 639 [2]: 0%
Ef, core B7, region 640 [2]: 0%
Ef, core B7, region 641 [2]: 0%
Ef, core B7, region 657 [2]: 0%
Ef, core B7, region 662 [2]: 7.66%
Ef, core B7, region 664 [2]: 0%
Ef, core B7, region 672 [2]: 4.95%
Ef, core B7, region 685 [2]: 0%
Ef, core B7, region 686 [2]: 0%
Ef, core B7, region 712 [2]: 0%
Ef, core B7, region 719 [2]: 0%
Ef, core B7, region 729 [2]: 0%
Ef, core B7, region 754 [2]: 0%
Ef, core B7, region 943 [2]: 0%
Ef, core B7, region 950 [2]: 0%
Ef, core B5, region 61 [3]: 0%
Ef, core B5, region 80 [3]: 0%
Ef, core B5, region 103 [3]: 0%
Ef, core B5, region 140 [3]: 0%
Ef, core B5, region 162 [3]: 0%
Ef, core B5, region 167 [3]: 0%
Ef, core B5, region 174 [3]: 0%
Ef, core B5, region 198 [3]: 0%
Ef, core B5, region 199 [3]: 0%
Ef, core B5, region 220 [3]: 0%
Ef, core B5, region 230 [3]: 0%
Ef, core B5, region 242 [3]: 0%
Ef, core B5, region 246 [3]: 0%
Ef, core B5, region 277 [3]: 0%
Ef, core B5, region 318 [3]: 0%
Ef, core B5, region 431 [3]: 0%
Ef, core B5, region 452 [3]: 0%
Ef, core B5, region 585 [3]: 0%
Ef, core B5, region 586 [3]: 0%
Ef, core B5, region 592 [3]: 0%
Ef, core B5, region 600 [3]: 0%
Ef, core B5, region 601 [3]: 0%
Ef, core B5, region 632 [3]: 0%
Ef, core B5, region 659 [3]: 0%
Ef, core B5, region 669 [3]: 0%
